From the Immune Epitope Database (IEDB)
pKd: −log10 of the molar value.

How the values were obtained:
Test in all cases: IEDB peptide-MHC binding, purified MHC/competitive/radioactivity; filed as Kd, often an IC50 or EC50 that approximates it; ≥ and ≤ were set here for values at or beyond the usual limits of such assays
[1] = molecular target: HLA-A*31:01
[2] = molecular target: HLA-A*11:01
[3] = molecular target: HLA-A*33:01
[4] = molecular target: HLA-A*68:01
[5] = molecular target: HLA-A*03:01
[6] = source organism: Vaccinia virus Copenhagen
[7] = source organism: Dengue virus 1 Brazil/97-11/1997
[8] = source organism: Dengue virus 4 Philippines/H241/1956
[9] = source organism: Dengue virus 3 Martinique/1243/1999
[10] = source organism: Vaccinia virus WR
[11] = source organism: Dengue virus 2 Jamaica/1409/1983
[12] = source organism: Lassa virus Josiah
[13] = source organism: Mammarenavirus lassaense
[14] = source organism: Mammarenavirus machupoense
[15] = source organism: Dengue virus 1 Nauru/West Pac/1974
[16] = source organism: SARS coronavirus Tor2

Sequence | pKd [1, 10] | pKd [2, 10] | pKd [3, 10] | pKd [4, 10] | pKd [5, 10] | also measured
ILNFLDWIK | – | – | – | – | – | pKd [1, 6]: 6.37; pKd [2, 6]: 6.81; pKd [3, 6]: 5.89; pKd [4, 6]: 6.80; pKd [5, 6]: 6.72
TAKLRWFVER | – | – | – | – | – | pKd [1, 7]: ≤ 4.55; pKd [3, 7]: 7.47
VVRPPFNMLK | – | – | – | – | – | pKd [2, 8]: 7.15; pKd [5, 8]: 8.35
LVAPSYGMR | – | – | – | – | – | pKd [4, 8]: 8.42
STYGWNIVK | – | – | – | – | – | pKd [5, 9]: 8.32
IISIRPRVTK | 6.37 | 6.90 | 5.24 | 6.74 | 7.26 | –
RMCTREEFTR | – | – | – | – | – | pKd [1, 11]: 8.24; pKd [3, 11]: 6.18
ATTILTPMLR | – | – | – | – | – | pKd [1, 8]: 7.11; pKd [2, 8]: 6.89; pKd [4, 8]: 6.55
HVCNATDFWR | 8.09 | 6.35 | 6.42 | 7.42 | 5.17 | –
DSDVSLIIEY | 4.99 | 5.56 | 5.33 | 6.69 | 5.32 | –
TIDNPTKYIR | 6.94 | 5.59 | 5.37 | 6.80 | 4.80 | –
DFWKLVDRER | – | – | – | – | – | pKd [3, 9]: 8.82
VVKDDPDHY | ≤ 4.11 | 5.74 | ≤ 4.11 | 5.09 | ≤ 4.11 | –
SAVIDALPR | – | – | – | – | – | pKd [1, 12]: 5.67; pKd [2, 12]: 6.65; pKd [3, 12]: 4.82; pKd [4, 12]: 7.27; pKd [5, 12]: 4.96
TINVNSLALK | 5.95 | 7.73 | 5.40 | 8.21 | 7.76 | –
EIARIENEMK | ≤ 4.15 | 5.44 | 5.15 | 8.15 | 5.25 | –
CVDIFTEGK | 4.79 | 7.11 | ≤ 4.11 | 7.73 | 5.43 | –

Sequence | pKd [1, 10] | pKd [2, 10] | pKd [3, 10] | pKd [4, 10] | pKd [5, 10] | also measured
LVYIFEPEK | ≤ 4.68 | 7.60 | ≤ 4.11 | 6.89 | 6.42 | –
NIVTDLENR | 5.76 | 5.06 | 6.08 | 7.66 | 5.04 | –
SLAIKNYYR | – | – | – | – | – | pKd [1, 6]: 5.51; pKd [2, 6]: 5.22; pKd [3, 6]: ≤ 4.11; pKd [4, 6]: 5.19; pKd [5, 6]: ≤ 4.37
LITGNMSFR | – | – | – | – | – | pKd [3, 11]: 5.88; pKd [4, 11]: 7.58
ENAVWDQCK | – | – | – | – | – | pKd [1, 13]: ≤ 4.11; pKd [2, 13]: ≤ 4.11; pKd [3, 13]: ≤ 4.42; pKd [4, 13]: 5.83; pKd [5, 13]: ≤ 4.11
VAEHRFENMK | ≤ 4.46 | 6.10 | ≤ 4.15 | 5.24 | 5.31 | –
RSTPFNMLKR | – | – | – | – | – | pKd [1, 11]: 5.86
AVNKSNKPLK | 5.81 | 6.83 | ≤ 4.33 | 5.22 | 5.96 | –
ITSTKTIEY | 4.82 | 6.36 | ≤ 4.68 | 5.76 | 6.91 | –
SFFQEIPVFL | – | – | – | – | – | pKd [1, 14]: 6.21; pKd [2, 14]: ≤ 4.22; pKd [3, 14]: 5.62; pKd [4, 14]: ≤ 4.31; pKd [5, 14]: ≤ 4.15
SMTIREFPRK | 7.40 | 8.50 | 5.16 | 5.90 | 8.00 | –
QAAVLMGLGK | – | – | – | – | – | pKd [4, 8]: 7.22
DVSLSAYIIR | 6.41 | 6.22 | 5.95 | 6.62 | 5.62 | –
VSTGESSILR | 5.86 | 6.69 | 5.49 | 6.92 | ≤ 4.60 | –
VTLFFLSGR | – | – | – | – | – | pKd [1, 15]: 5.13; pKd [3, 15]: 7.01
ILCFTIKRK | – | – | – | – | – | pKd [1, 16]: 5.18; pKd [2, 16]: 5.11; pKd [3, 16]: ≤ 4.35; pKd [4, 16]: 4.76; pKd [5, 16]: 6.00
LIKTILASY | 5.13 | 5.10 | 4.73 | 4.99 | 6.25 | –
